Assay [1] concerns the target T1, murine low density lipoprotein receptor-related protein (LRP) / α2-macroglobulin receptor, CTGF receptor on … (murine, UniProt Q91ZX7 20-4545).
T1 construct: whole, on cells; they are fragments found by mass spectrometry, not the construct; In the cell the protein is cleaved into non-covalently joined α and β subunits (background statement); also called α2MR; LRP/α2MR
Kind of assay: equilibrium binding of 125I-rhCTGF to cells (FIG. 2, BMS2), non-linear regression; low affinity site.

In assay [2] the target is human low density lipoprotein receptor-related protein (LRP) / α2-macroglobulin receptor, CTGF receptor on … (human, UniProt Q07954 20-4544). Kind of assay: cell-based or functional assay.
Assay [3] has as its target high affinity binding site for CTGF on cells. Kind of assay: equilibrium binding of 125I-rhCTGF to cells (FIG. 2, BMS2), non-linear regression; high affinity site.
Assay [4] addresses T2, CTGF receptor (LRP), cells not named.
T2 construct: whole, on cells; 'other cells examined'); also called cross-linked complex; 620 kDa protein
Kind of assay: 200 pM iodinated CTGF with 0-6.5 nM unlabeled CTGF on cells, S-SMCC cross-linking, densitometry of the complex bands.

For assay [5] the target is unchanged. Kind of assay: equilibrium binding of 125I-rhCTGF to other cells with a single class of sites.
Assay [6] has as its target T1, murine low density lipoprotein …. Kind of assay: competition with 0.1 nM 125I-CTGF on BMS-2 cells.

By Kd is commonly meant the concentration at which binding is half-saturated. As a reminder, the IC50 is the concentration at which inhibition is half-maximal. The low end stands for inhibition by little substance, the high end for a need for much substance.

T1 sequence (Q91ZX7 20-4545): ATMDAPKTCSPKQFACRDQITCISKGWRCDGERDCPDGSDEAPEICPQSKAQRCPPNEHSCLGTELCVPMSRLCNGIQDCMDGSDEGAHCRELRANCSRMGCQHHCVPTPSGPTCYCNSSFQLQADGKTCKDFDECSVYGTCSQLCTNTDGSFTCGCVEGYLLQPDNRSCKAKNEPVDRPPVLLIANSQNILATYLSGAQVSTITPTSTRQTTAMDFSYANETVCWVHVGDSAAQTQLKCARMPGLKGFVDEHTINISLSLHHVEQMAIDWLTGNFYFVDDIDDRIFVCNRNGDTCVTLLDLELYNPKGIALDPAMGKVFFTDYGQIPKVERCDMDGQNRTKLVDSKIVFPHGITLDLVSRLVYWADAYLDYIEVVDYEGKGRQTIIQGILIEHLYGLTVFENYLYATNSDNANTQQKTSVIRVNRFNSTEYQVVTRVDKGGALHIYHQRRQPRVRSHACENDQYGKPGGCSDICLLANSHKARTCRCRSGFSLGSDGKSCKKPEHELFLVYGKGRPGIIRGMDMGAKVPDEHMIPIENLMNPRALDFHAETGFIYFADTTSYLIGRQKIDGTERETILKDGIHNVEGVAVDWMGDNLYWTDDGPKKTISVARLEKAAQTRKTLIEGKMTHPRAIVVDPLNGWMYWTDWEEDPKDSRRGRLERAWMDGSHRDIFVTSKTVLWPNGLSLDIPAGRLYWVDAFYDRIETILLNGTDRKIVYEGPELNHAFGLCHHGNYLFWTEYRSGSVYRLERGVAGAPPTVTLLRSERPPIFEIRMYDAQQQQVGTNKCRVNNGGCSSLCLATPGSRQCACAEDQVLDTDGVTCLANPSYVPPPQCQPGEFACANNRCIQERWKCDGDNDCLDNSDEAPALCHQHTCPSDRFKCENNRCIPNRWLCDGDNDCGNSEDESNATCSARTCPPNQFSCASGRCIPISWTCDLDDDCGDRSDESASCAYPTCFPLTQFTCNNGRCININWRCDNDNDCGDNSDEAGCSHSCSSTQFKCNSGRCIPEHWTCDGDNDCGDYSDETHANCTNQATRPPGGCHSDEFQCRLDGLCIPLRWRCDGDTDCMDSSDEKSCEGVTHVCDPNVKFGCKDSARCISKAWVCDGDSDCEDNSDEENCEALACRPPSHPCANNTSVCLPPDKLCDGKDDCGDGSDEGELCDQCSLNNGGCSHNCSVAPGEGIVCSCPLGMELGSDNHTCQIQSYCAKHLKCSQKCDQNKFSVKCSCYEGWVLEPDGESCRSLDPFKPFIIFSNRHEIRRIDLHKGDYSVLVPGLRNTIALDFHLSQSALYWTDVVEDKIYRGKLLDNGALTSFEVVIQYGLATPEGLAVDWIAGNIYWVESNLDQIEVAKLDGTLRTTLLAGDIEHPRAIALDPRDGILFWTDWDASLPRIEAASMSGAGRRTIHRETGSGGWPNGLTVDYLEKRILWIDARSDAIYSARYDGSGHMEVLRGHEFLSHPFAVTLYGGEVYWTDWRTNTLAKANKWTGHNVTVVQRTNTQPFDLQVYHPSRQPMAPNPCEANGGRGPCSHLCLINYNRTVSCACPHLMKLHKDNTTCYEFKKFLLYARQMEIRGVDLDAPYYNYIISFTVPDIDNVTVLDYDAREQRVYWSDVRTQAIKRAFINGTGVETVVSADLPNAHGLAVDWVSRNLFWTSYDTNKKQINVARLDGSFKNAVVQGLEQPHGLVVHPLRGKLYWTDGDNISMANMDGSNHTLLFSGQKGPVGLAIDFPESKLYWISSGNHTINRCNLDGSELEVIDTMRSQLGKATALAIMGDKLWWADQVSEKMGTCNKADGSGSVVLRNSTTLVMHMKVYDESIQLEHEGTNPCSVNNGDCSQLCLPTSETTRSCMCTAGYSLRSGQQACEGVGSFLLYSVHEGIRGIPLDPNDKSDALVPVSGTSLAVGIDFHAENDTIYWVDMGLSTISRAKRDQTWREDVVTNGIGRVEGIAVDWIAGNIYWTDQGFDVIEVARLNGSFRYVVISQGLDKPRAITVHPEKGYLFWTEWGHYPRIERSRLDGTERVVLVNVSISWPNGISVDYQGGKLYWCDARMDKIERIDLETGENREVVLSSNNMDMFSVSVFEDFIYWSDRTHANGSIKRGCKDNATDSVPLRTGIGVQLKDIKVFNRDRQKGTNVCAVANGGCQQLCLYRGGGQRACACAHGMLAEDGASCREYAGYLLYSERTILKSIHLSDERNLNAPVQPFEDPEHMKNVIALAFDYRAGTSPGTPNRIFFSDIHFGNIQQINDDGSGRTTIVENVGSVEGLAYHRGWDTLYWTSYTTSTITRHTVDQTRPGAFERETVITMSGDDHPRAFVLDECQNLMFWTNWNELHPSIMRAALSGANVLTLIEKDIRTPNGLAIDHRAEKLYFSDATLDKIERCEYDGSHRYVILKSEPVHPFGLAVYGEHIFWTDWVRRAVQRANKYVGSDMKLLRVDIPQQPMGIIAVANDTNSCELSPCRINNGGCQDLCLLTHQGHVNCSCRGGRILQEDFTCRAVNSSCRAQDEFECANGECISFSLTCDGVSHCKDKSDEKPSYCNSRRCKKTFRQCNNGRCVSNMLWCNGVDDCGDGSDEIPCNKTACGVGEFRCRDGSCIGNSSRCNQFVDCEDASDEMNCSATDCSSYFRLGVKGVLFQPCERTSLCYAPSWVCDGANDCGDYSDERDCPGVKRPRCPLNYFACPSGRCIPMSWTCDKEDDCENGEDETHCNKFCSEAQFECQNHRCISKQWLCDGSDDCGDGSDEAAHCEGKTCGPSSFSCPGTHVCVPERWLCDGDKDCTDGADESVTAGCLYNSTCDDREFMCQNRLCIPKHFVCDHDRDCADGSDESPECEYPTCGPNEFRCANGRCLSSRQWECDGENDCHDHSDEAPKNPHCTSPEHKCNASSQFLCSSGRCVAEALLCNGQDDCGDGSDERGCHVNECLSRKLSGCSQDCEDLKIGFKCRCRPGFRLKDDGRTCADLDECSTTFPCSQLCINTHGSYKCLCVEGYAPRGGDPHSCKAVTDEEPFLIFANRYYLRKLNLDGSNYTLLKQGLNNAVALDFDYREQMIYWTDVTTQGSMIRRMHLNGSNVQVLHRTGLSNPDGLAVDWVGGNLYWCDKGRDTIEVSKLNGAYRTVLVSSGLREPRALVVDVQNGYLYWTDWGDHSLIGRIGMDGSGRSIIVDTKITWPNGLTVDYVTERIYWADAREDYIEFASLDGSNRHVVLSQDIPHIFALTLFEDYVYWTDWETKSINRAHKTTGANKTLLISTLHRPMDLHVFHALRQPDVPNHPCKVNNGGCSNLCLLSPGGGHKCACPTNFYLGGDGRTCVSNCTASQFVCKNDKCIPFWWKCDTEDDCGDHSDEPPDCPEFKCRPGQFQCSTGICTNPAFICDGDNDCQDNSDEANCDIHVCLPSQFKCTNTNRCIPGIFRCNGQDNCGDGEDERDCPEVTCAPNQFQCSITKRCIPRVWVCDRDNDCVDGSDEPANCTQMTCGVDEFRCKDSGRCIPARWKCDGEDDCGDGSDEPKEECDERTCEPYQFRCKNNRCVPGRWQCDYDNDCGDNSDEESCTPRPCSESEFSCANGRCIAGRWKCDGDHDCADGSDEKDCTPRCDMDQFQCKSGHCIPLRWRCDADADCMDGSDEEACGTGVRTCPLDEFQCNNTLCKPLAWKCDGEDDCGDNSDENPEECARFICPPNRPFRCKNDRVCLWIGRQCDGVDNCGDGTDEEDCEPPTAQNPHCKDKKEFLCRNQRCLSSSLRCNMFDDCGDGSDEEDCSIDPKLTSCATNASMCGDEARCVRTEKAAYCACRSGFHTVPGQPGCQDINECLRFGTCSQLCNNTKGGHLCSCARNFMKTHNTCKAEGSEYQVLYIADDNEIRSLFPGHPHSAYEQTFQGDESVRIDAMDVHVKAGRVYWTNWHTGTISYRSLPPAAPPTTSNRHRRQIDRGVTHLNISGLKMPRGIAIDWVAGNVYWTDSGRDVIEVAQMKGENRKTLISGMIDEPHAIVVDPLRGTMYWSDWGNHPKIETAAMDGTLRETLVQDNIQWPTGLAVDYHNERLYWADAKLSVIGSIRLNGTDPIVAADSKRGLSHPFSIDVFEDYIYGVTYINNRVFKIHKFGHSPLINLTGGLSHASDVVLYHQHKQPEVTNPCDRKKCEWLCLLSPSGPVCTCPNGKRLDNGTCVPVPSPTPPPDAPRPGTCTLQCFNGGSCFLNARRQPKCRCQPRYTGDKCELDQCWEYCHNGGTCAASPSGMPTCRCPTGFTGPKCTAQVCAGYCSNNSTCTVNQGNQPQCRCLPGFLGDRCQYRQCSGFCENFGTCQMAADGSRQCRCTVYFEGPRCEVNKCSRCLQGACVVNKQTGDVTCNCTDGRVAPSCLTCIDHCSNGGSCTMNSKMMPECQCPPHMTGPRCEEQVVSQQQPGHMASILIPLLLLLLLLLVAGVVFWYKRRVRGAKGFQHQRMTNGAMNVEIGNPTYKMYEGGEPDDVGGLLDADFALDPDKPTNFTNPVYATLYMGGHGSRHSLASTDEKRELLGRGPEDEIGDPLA

B1: recombinant human connective tissue growth factor (rhCTGF) (ligand, UniProt P29279 27-349, looked up)
chain: QNCSGPCRCPDEPAPRCPAGVSLVLDGCGCCRVCAKQLGELCTERDPCDPHKGLFCHFGSPANRKIGVCTAKDGAPCIFGGTVYRSGESFQSSCKYQCTCLDGAVGCMPLCSMDVRLPSPDCPFPRRVKLPGKCCEEWVCDEPKDQTVVGPALAAYRLEDTFGPDPTMIRANCLVQTTEWSACSKTCGMGISTRVTNDNASCRLEKQSRLCMVRPCEADLEENIKKGKKCIRTPKISKPIKFELSGCTSMKTYRAKFCGVCTDGRCCTPHRTTTLPVEFKCPDGEVMKKNMMFIKTCACHYNCPGDNDIFESLYYRKMYGDMA
modifications: radioiodinated (125I; Iodobeads or chloramine-T) when used as tracer; unlabeled when used as competitor
notes: mature; Form set to mature because the protein was secreted and purified from conditioned medium
Consider B1, for which the Kd in assay [1] is around 1 nM; in assay [3], around 0.137 nM; in assay [5] it was around 1 nM. In addition, in assay [2], the “degradation of 125I-CTGF, control MG63 cells against cells treated with TGF-β for 48 hours” value was at least 3 fold. Moreover, the IC50 in assay [4] is around 1 nM.

B2: lipoprotein lipase purified from bovine milk (enzyme, UniProt P11151 29-478, looked up)
chain: DRITGGKDFRDIESKFALRTPEDTAEDTCHLIPGVTESVANCHFNHSSKTFVVIHGWTVTGMYESWVPKLVAALYKREPDSNVIVVDWLSRAQQHYPVSAGYTKLVGQDVAKFMNWMADEFNYPLGNVHLLGYSLGAHAAGIAGSLTNKKVNRITGLDPAGPNFEYAEAPSRLSPDDADFVDVLHTFTRGSPGRSIGIQKPVGHVDIYPNGGTFQPGCNIGEALRVIAERGLGDVDQLVKCSHERSVHLFIDSLLNEENPSKAYRCNSKEAFEKGLCLSCRKNRCNNMGYEINKVRAKRSSKMYLKTRSQMPYKVFHYQVKIHFSGTESNTYTNQAFEISLYGTVAESENIPFTLPEVSTNKTYSFLLYTEVDIGELLMLKLKWISDSYFSWSNWWSSPGFDIGKIRVKAGETQKKVIFCSREKMSYLQKGKSPVIFVKCHDKSLNRKSG
notes: also called LpL
With B2, the binding result in assay [6] is on record as “binds”.

The record behind these values is patent publication US6555322 (FIBROGEN, dated 2003).
